Assay results published in PMC10716376, “The assembly of the Mitochondrial Complex I Assembly complex uncovers a redox pathway coordination” (Nature Communications, 2023).
Positions count from the first letter of the chain named. In names and notes the source's numbering stands.

T1: ECSIT_(CTER) (residues 221-431) (human, UniProt Q9BQ95 221-431)
T1 chain: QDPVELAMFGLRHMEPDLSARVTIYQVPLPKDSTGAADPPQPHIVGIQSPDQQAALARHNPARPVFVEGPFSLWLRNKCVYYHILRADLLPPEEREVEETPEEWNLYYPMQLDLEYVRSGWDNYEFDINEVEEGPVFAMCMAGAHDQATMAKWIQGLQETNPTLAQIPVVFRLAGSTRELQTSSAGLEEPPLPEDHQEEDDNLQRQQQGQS

B1: ACAD9WT (mature ACAD9, residues 38-621) (enzyme, human, UniProt Q9H845 38-621, looked up)
chain: AFAKELFLGKIKKKEVFPFPEVSQDELNEINQFLGPVEKFFTEEVDSRKIDQEGKIPDETLEKLKSLGLFGLQVPEEYGGLGFSNTMYSRLGEIISMDGSITVTLAAHQAIGLKGIILAGTEEQKAKYLPKLASGEHIAAFCLTEPASGSDAASIRSRATLSEDKKHYILNGSKVWITNGGLANIFTVFAKTEVVDSDGSVKDKITAFIVERDFGGVTNGKPEDKLGIRGSNTCEVHFENTKIPVENILGEVGDGFKVAMNILNSGRFSMGSVVAGLLKRLIEMTAEYACTRKQFNKRLSEFGLIQEKFALMAQKAYVMESMTYLTAGMLDQPGFPDCSIEAAMVKVFSSEAAWQCVSEALQILGGLGYTRDYPYERILRDTRILLIFEGTNEILRMYIALTGLQHAGRILTTRIHELKQAKVSTVMDTVGRRLRDSLGRTVDLGLTGNHGVVHPSLADSANKFEENTYCFGRTVETLLLRFGKTIMEEQLVLKRVANILINLYGMTAVLSRASRSIRIGLRNHDHEVLLANTFCVEAYLQNLFSLSQLDKYAPENLDEQIKKVSQQILEKRAYICAHPLDRTC
notes: human ACAD9, mature form, residues 38-621; E. coli codon-optimised synthetic gene; Cloned into pET-21d(+); Plasmid details are in Supplementary Data 1; source: E. coli C43 (DE3), purified (HisTrap, dialysed in SEC buffer)
B2: ECSIT_(CTER-W324A) (domain or fragment, human, UniProt Q9BQ95 221-431, looked up)
chain: T1 chain with W104A
notes: human ECSIT, residues 221-431, W324A; also called ECSIT-W324A; ECSIT_(W324A); source: E. coli BL21 Star (DE3), purified (HisTrap, SEC)
B3: ECSIT_(CTER-Y327A) (domain or fragment, human, UniProt Q9BQ95 221-431, looked up)
chain: T1 chain with Y107A
notes: human ECSIT, residues 221-431, Y327A; also called ECSIT_(Y327A); source: E. coli BL21 Star (DE3), purified (HisTrap, SEC)
B4: ECSIT_(CTER-Y327F) (domain or fragment, human, UniProt Q9BQ95 221-431, looked up)
chain: T1 chain with Y107F
notes: human ECSIT, residues 221-431, Y327F; also called ECSIT_(Y327F); source: E. coli BL21 Star (DE3), purified (HisTrap, SEC)
B5: ECSIT_(CTER-Y328A) (domain or fragment, human, UniProt Q9BQ95 221-431, looked up)
chain: T1 chain with Y108A
notes: human ECSIT, residues 221-431, Y328A; also called ECSIT_(Y328A); source: E. coli BL21 Star (DE3), purified (HisTrap, SEC)
B6: ECSIT_(CTER-Y328F) (domain or fragment, human, UniProt Q9BQ95 221-431, looked up)
chain: T1 chain with Y108F
notes: human ECSIT, residues 221-431, Y328F; also called ECSIT_(Y328F); source: E. coli BL21 Star (DE3), purified (HisTrap, SEC)
B7: ACAD9_(S191A) (enzyme, human, UniProt Q9H845 38-621, looked up)
chain: B1 chain with S154A
notes: human ACAD9, residues 38-621, S191A; One FAD per protomer in the cryo-EM structure; source: E. coli C43 (DE3), purified (HisTrap, dialysed in SEC buffer)
B8: ACAD9_(A184S/SR194TS) (enzyme, human, UniProt Q9H845 38-621, looked up)
chain: B1 chain with A147S, S157T, R158S
notes: human ACAD9, residues 38-621, A184S and SR194TS combined (mimics the VLCAD gatekeeper loop); source: E. coli C43 (DE3), purified (HisTrap, dialysed in SEC buffer)
B9: ACAD9_(VLCAD) (enzyme, human, UniProt Q9H845 38-621, looked up)
chain: B1 chain with L364M, L367M, Y369F, T370M
notes: human ACAD9, residues 38-621, residues 401-407 LGGLGYT replaced by the corresponding VLCAD residues 437-443 MGGMGFM; also called ACAD9 mutated to mimic VLCAD; source: E. coli C43 (DE3), purified (HisTrap, dialysed in SEC buffer)
B10: VLCADWT (very long chain acyl-CoA dehydrogenase, res. 72-655) (enzyme, human, UniProt P49748 72-655, looked up)
chain: SFAVGMFKGQLTTDQVFPYPSVLNEEQTQFLKELVEPVSRFFEEVNDPAKNDALEMVEETTWQGLKELGAFGLQVPSELGGVGLCNTQYARLVEIVGMHDLGVGITLGAHQSIGFKGILLFGTKAQKEKYLPKLASGETVAAFCLTEPSSGSDAASIRTSAVPSPCGKYYTLNGSKLWISNGGLADIFTVFAKTPVTDPATGAVKEKITAFVVERGFGGITHGPPEKKMGIKASNTAEVFFDGVRVPSENVLGEVGSGFKVAMHILNNGRFGMAAALAGTMRGIIAKAVDHATNRTQFGEKIHNFGLIQEKLARMVMLQYVTESMAYMVSANMDQGATDFQIEAAISKIFGSEAAWKVTDECIQIMGGMGFMKEPGVERVLRDLRIFRIFEGTNDILRLFVALQGCMDKGKELSGLGSALKNPFGNAGLLLGEAGKQLRRRAGLGSGLSLSGLVHPELSRSGELAVRALEQFATVVEAKLIKHKKGIVNEQFLLQRLADGAIDLYAMVVVLSRASRSLSEGHPTAQHEKMLCDTWCIEAAARIREGMAALQSDPWQQELYRNFKSISKALVERGGVVTSNPLGF
notes: human very long-chain acyl-CoA dehydrogenase (VLCAD), residues 72-655; plasmid ACADVL from Addgene #38838; VLCAD-related constructs were cloned into pNIC28-BSA; also called ACADVL; source: E. coli Rosetta 2 (DE3), purified (HisTrap, SEC)

Key:
[1] = biological target: VLCAD_(ACAD9) (human) (UniProt P49748); assay: mass photometry; ACAD9 (or VLCAD) at 20-50 nM in 25 mM HEPES pH 7.5, 250 mM NaCl, or diluted in 4.8 uM ECSIT solution for complex formation
[2] = biological target: T1, ECSIT_(CTER) (residues 221-431); assay: ITC
[3] = biological target: the molecule itself; assay: cryo-EM structure; ACAD9WT-ECSIT_(CTER) reconstituted (molar ratio 1:1.25) and purified by gel filtration; 25 mM HEPES, 300 mM NaCl, 1 mM TCEP, pH 7.5; C2 symmetry imposed
[4] = biological target: B1; assay: dynamic light scattering; 278 K, protein at 1-2 mg/ml; complexes reconstituted at molar ratio 1:1.25; details: both partners purified
[5] = biological target: the molecule itself; assay: mass photometry; ACAD9 (or VLCAD) at 20-50 nM in 25 mM HEPES pH 7.5, 250 mM NaCl, or diluted in 4.8 uM ECSIT solution for complex formation

| Molecule | binding result [4] | stoichiometry N [5] | further results |
| --- | --- | --- | --- |
| VLCAD_(ACAD9) (from UniProt P49748 72-655) (enzyme) | – | – | stoichiometry N [1]: 2 |
| B1 | – | – | Kd [2]: 1450 nM; stoichiometry N [3]: 2 |
| B2 | binds | – | – |
| B3 | binds | – | – |
| B4 | binds | – | – |
| B5 | binds | – | – |
| B6 | binds | – | – |
| B7 | – | 2 | – |
| B8 | – | 2 | – |
| B9 | – | 2 | – |
| B10 | – | 2 | – |
